{"source": "patent US7422883B2", "about": "“Map kinase integrin-binding domain” (Inter-K Pty Limited, priority 2000, dated 2008)", "key": {"ERK2": {"biological_target": "T1, ERK2 (Mus musculus, UniProt P63085)", "T1 construct": "GST (glutathione-S-transferase); made in house", "T1 sequence (P63085 whole entry, the tested form may be a part)": "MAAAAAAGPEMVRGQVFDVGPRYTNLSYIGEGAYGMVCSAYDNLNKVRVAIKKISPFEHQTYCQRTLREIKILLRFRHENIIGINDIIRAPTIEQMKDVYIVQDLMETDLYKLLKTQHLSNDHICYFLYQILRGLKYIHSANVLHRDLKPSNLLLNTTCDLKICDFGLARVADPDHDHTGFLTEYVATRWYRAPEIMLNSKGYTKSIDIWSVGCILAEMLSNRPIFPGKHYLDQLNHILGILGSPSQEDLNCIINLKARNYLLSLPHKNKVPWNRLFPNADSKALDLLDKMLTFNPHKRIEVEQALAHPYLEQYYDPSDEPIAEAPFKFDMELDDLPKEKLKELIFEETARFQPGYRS", "experiment": "ELISA of ERK2 binding to biotinylated integrin cytoplasmic domain peptides", "settings": "for binding of ERK2 to peptide: ERK2 cleaved from GST-ERK2 by thrombin, FIG. 23; for binding of peptide to ERK2: ERK2 (1 μm), FIG. 35C; for binding of ERK2 to integrin subunit peptides: corrected for non-specific binding, FIG. 34", "procedure": "Peptide fragments corresponding to regions of the cytoplasmic tail domain of the β6 subunit were screened in an enzyme-linked immunosorbent assay (ELISA) for binding with ERK2. The 52 amino acid long β6 cytoplasmic tail is shown in FIG. 16 as are the amino acid sequences for the cytoplasmic domains of the β1 to β3 subunits. In particular, four synthetic peptides designated fragment 1 to fragment 4 were prepared and biotinylated at the N-terminal end of each, respectively (Auspep Pty Ltd, Melbourne Australia).\nOverlapping biotinylated fragments 1 to 4 were coated onto streptavidin coated polystyrene plates (Pierce, Rockford Ill. USA, Cat No. 15125) and the ELISA performed substantially according to manufacturers instructions. Briefly, wells are washed with 3×200 μl of wash buffer (TBS, 0.1% BSA, 0.05% Tween 20 or SuperBlock™ blocking buffer in TBS, Pierce, Prod. No. 37535) prior to addition of biotinylated peptides (100 μl) and incubation for 1 hr at room temperature to allow for capture of the peptides on the plate. Following another washing step, peptides were overlayed with GST-ERK, ERK (or JNK-1) alone at a volume of 100 μl per well, and the plates incubated for a further 1 hr at room temperature before removal of any unbound ERK by further washing.\nBinding of ERK to the peptides is detected using 100 μl anti-ERK1/2 mAb SC1647 (Santa Cruz) as the primary antibody at a dilution of 1:700 (isotype matched antibody IgG2b is used as a control). This is followed by another washing step and addition of 100 μl rabbit anti-mouse antibody (Biorad) conjugated to alkaline phosphatase at a concentration of 1:1000 for 30 minutes again at room temperature. A […] of detection reagent (alkaline phosphatase detection kit-Biorad) is then introduced into each well after a final washing step and allowed to react for 15-30 minutes at room temperature in the dark before absorbance is measured at 405 nm. All dilutions of peptides, MAP kinase and antibodies were performed using the wash buffer. GST-ERK is a fusion protein consisting of ERK coupled to glutathione-S-transferase and purified from host cells transfected with pGEX vector.\nTo further localise the binding domain on the cytoplasmic tail of the β6 subunit, progressively shorter peptides from the region of the β6 cytoplasmic tail corresponding to peptide fragment 2 were synthesised, biotinylated and the capacity to associate or otherwise bind to ERK2 assessed as described above. The binding of GST.ERK2 to a 15 mer test peptide (seq. 4) having the amino acid sequence RSKAKWQTGTNPLYR (SEQ ID NO: 7) and a 10 mer test peptide having the sequence RSKAKWQTGT (SEQ ID NO: 21) is shown in FIG. 20 compared to fragment 2 over a range of concentrations of the peptides. […] 4 peptide compared to fragment 2 was found. Binding of ERK2 to the seq. 3 peptide was substantially less than that observed for seq. 4.\nBinding of ERK2 to the seq.4 peptide (RSKAKWQTGTNPLYR) (SEQ ID NO: 7) was compared with peptides corresponding to regions of the cytoplasmic domain of integrin subunits β1, β2, β3 and β5. The amino acid sequences for those peptides is shown below:\nTo evaluate this, cell lysates containing equal protein loads were prepared from SW480 wild-type cells and SW480 cells transfected with either vector alone (mock transfectants), wild type β6 or the β6 deletion mutant Δ746-764 (lacking the sequence EAERSKAKWQTGTNPLYRG (SEQ ID NO: 26), Cone et al, 1994). The lysates were immunoprecipitated with mAbs R6G9 (anti-β6), P1F6 (anti-β5) or murine IgG control antibody (mlgG). […] To determine whether β5 can bind ERK2 in vitro, a 15-mer peptide fragment derived from the β5 cytoplasmic domain corresponding to the ERK binding domain on β6 was tested for its ability to bind ERK2 in an ELISA."}, "[1]": {"test_system": "MAP kinase activity in WiDr wild-type cells", "experiment": "MAP kinase assay, serum-stimulated WiDr cells", "format": "cell-based, human", "settings": "inhibitors 40 μM added one hour before serum, serum 30 min", "procedure": "(§1) Cultures of WiDr and HT29 mock and antisense β6 transfectants were established by seeding 1×10^6 cells/5 ml of culture medium in 25 cm^2 tissue culture flasks. Cells were incubated at 37° C. in humidified CO2 for 24 hours before serum starvation in serum-free medium for the next 16 hours. Foetal calf serum was then added to a final concentration of 10% for 30 mins before MAP kinase assays were performed. […] The ability of cells to transfer phosphate from [γ^32P]-ATP to a synthetic peptide that contains specifically a p42/p44 MAP kinase phosphorylation site was measured as described in the manufacturer's instructions. [^32P]-labelled peptides were spotted onto PEI-cellulose paper, unbound radioactivity was washed with 75 mM phosphoric acid and bound [^32P]-labelled peptides were measured by liquid scintillation counting. Protein estimation was performed on each cell lysate used and enzyme activity calculated as described in the manufacturer's instructions. […]\n(§2) The effect of MEK (MAP kinase) inhibitors UO126 and PD98059 on MAP kinase activity in WiDr and HT29 wild-type cells was tested in the absence/presence of serum. […] Serum was then added for 30 min and MAP kinase activity assessed before and after addition of serum. […]"}, "[2]": {"test_system": "MAP kinase activity in HT29 wild-type cells", "experiment": "MAP kinase assay, serum-stimulated HT29 cells", "format": "cell-based, human", "settings": "inhibitors 40 μM added one hour before serum, serum 30 min", "procedure": "as §1, §2"}, "[3]": {"test_system": "gelatinase B secretion by SW480 β6 transfectants", "experiment": "Gelatinase B secretion, gelatin zymogram of tumour-conditioned medium", "format": "cell-based, human", "settings": "40 μM, serum-free, 48 hours, versus DMSO control", "procedure": "SW480 β6 transfectants were cultured under serum-free conditions for 48 hours in the absence/presence of the MEK inhibitor PD98059 (40 μM) or DMSO (vehicle control). Tumour-conditioned medium was assayed for gelatinase B by analysis of equal protein loads in a gelatin zymogram."}}, "note": "No end group written: not given here. *: point of attachment. Biotin = O=C1N[C@H]2[C@H](CS[C@H]2CCCCC(=O)*)N1", "data": [{"molecule": "RSKAKWQTGT (also: biotinylated, site not given here) [seq. 3, 10 mer test peptide of the β6 cytoplasmic tail]", "values": [{"measurement": "binding of GST.ERK2 to peptide", "setting": "ERK2; over a range of concentrations of the peptides, compared to fragment 2, FIG. 20", "value": "substantially less than that observed for seq. 4"}]}, {"molecule": "RSKAKNPLYR [10(4), 4 is omitted]", "values": [{"measurement": "binding of ERK2 to peptide", "setting": "ERK2", "value": "Comparable binding of ERK2 to seq. 4"}]}, {"molecule": "RSKAK (also: biotinylated, site not given here) [5 mer peptide]", "values": [{"measurement": "binding of ERK2 to peptide", "setting": "ERK2", "value": "Negligible binding"}]}, {"molecule": "RSRARYEMASNPLYR [β5, 15-mer peptide of the β5 cytoplasmic domain]", "values": [{"measurement": "binding of peptide to ERK2", "setting": "ERK2", "value": "Dose-dependant binding"}, {"measurement": "binding of ERK2 to integrin subunit peptides", "setting": "ERK2", "value": "Binding of ERK2 to the β5 and β3 peptides was also found"}]}, {"molecule": "COc1cccc(-c2cc(=O)c3ccccc3o2)c1N", "note": "[PD98059]", "values": [{"measurement": "serum-stimulated MAP kinase activity", "setting": "[1]", "value": "inhibitable"}, {"measurement": "serum-stimulated MAP kinase activity", "setting": "[2]", "value": "inhibitable"}, {"measurement": "gelatinase B secretion", "setting": "[3]", "value": "reduced gelatinase B secretion compared with controls"}]}, {"molecule": "RARAKWDTANNPLYK [β3, peptide of the β3 cytoplasmic domain]", "values": [{"measurement": "binding of ERK2 to integrin subunit peptides", "setting": "ERK2", "value": "Binding of ERK2 to the β5 and β3 peptides was also found"}]}, {"molecule": "KFEKEKMNAKWDTGENPIYK [β1, peptide of the β1 cytoplasmic domain]", "values": [{"measurement": "binding of peptide to ERK2", "setting": "ERK2", "value": "failed to bind ERK2"}]}, {"molecule": "RSKAKWQTGTNPLYRGSTST (Biotin-RSKAKWQTGTNPLYRGSTST) [fragment 2, biotinylated peptide of the β6 cytoplasmic tail]", "values": [{"measurement": "binding of non-phosphorylated GST.ERK2 to peptide", "setting": "ERK2; GST.ERK2 0.25 μg/100 μl, peptide 1 μg/100 μl, FIG. 17", "value": "significant binding"}, {"measurement": "binding of non-phosphorylated ERK2 to peptide", "setting": "ERK2; over a range of concentrations of ERK2, FIG. 18", "value": "Significant binding"}]}]}
